Assay: yeast display, Sf9 membrane polyspecificity reagent, FACS + sequencing; frameworks hold sequencing errors
In short: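 After 36–48 hours of galactose induction, yeast (Saccharomyces cerevisiae BJ5465) displaying a synthetic nanobody library were stained at 4 °C for 1 hour with 10% biotinylated, detergent-solubilized Sf9 membrane reagent. Streptavidin microbeads enriched the stained cells before FACS sorting into low and high (top ~1%) gates on anti-HA and streptavidin fluorescence. Each clone's polyreactivity label reflects its gate of origin.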
For “QVQLVESGGGLVQAGGSLRLSCASSGFTFIYYAMGWYRQAPGKERELVAAISGSGSTYYADSVKGRFTISRDNAKNTVYLQMNSLKPEDTAVYYCAADVTGGRKYDYWGQGTQVTVSS”, the “polyreactivity (PSR sort gate)” value was “low polyreactivity”.
With “QVQLVESGGGLVQAGGSLRLSCASSGFTFRYYTMGLYRQAPGKERELVASITWRGGSTYYADSVKGRFTISRDNAKNTVYLQMNCLKPEDTAVYYCNAERPYQYYPGIYRWYYYWGQGTQVTVSS” the “polyreactivity (PSR sort gate)” value was “low polyreactivity”.
With “QVQLVESGGGLVQAGGSLRLSCASSGFTFYTNDMGWDRQAPGKERELVAAITWSGGSTYYADSVKGRFTISRDNAKNTVYFQMNSLKPEDTAVYYCAASIGQVTQRRYGTRYYYWGQGTQVTVSS” the “polyreactivity (PSR sort gate)” value was “high polyreactivity”.
In the case of “QVQLVESGGGLVQAGGSLRLSCASSGFTLVGYAMGWYRQAPGKERELVAAISYRGGSTYYADSVKGRFTISRDNAKNTVYLQMNSLKPEDNAVYYCAATYQGSSRSRGYWGQGTQVTVSS”, the “polyreactivity (PSR sort gate)” value is reported as “high polyreactivity”.
With “QVQLVESGGGLVQAGGSLRLSCASSGIIFAQYTMGWYRQEPGKERELVAAINRNGGSTYYADSVKGRCTISRDNAKHTVYLQMNSLKPEDTAVYYCTKDIERYVRIYDSWGQGTQVTVSS” the “polyreactivity (PSR sort gate)” value was “low polyreactivity”.
In the case of “QVQLVESGGGLVQAGGSLRLSCASSGIIYNQNTMGWYRQAPGKERELVAAITFSGGRTSYADSVKGRFTISRDNAKNTFYLQMNSLKPEDSAVYYCNKALWGLYGYWGHGTQVTVSS”, the “polyreactivity (PSR sort gate)” value is reported as “low polyreactivity”.
In the case of “QVQLVESGGGLVQAGGSLRLSCASSGLTFALYAMGWYRQAPGKEREFVAAITGSGGSTYYADSVKGRFTISRDNAKHTVYLQMNSLKPEYTAVYYCNKLFYRWRIVDKYYYWGQGTQVTVSS”, the “polyreactivity (PSR sort gate)” value is reported as “high polyreactivity”.
For “QVQLVESGGGLVQAGGSLRLSCASSGLTFGGYTMGLSRQAPGKERELVAAITSGGSTYYADSVKGRFTISRDNAKNTVYLQMNSLKPEDTAVYYCAARVRGWPVSKFGYWGQGTQVTVSS”, the “polyreactivity (PSR sort gate)” value was “high polyreactivity”.
With “QVQLVESGGGLVQAGGSLRLSCASSGLTSYSAMGWYRQAPGKERELGAAIDGSDGNTYYADSVKGRFTISRDNAMNTVYLQMKSLKPEDTAVYYCNAETVRYWWSWENDYWGQGTQVTVSS” the “polyreactivity (PSR sort gate)” value was “high polyreactivity”.
With “QVQLVESGGGLVQAGGSLRLSCASSGNIFDIYAMGWYRQAPGKERELVAAITSSGGSTYYADSVKGRCTISRDNAKNTVYLQMNSLKPEDTAVYYCNAVSLVQKGDYWGQGTQVTVSS” the “polyreactivity (PSR sort gate)” value was “high polyreactivity”.
With “QVQLVESGGGLVQAGGSLRLSCASSGNIFDRYAMGRYRPAPGKERELVAGITWSGGSTNYADSVKGRFTISRDNAKNTVYLQMNSLKPEDTAVYYCGQANYYWGQGSQVTVSS” the “polyreactivity (PSR sort gate)” value was “low polyreactivity”.
With “QVQLVESGGGLVQAGGSLRLSCASSGNTFIENAMGWYRQAPGKERELVAAIDTGGSTYYADSVKGRFTISRDNAKNTVYLQMNSLKPEDSAVYYCTAVGLYLYRYIFGYLGKIGPGYDYWGQGTQVSVSS” the “polyreactivity (PSR sort gate)” value was “low polyreactivity”.
With “QVQLVESGGGLVQAGGSLRLSCASSGPIFVYKVKGWYRQAPGKERELVAAISWGTGSTYADSVKGRFTISRDNAKNTVYLQMYSLKPEDTAVYYCAAESFIPPYDHWGQGTQVTGSS” the “polyreactivity (PSR sort gate)” value was “low polyreactivity”.
In the case of “QVQLVESGGGLVQAGGSLRLSCASSGRIFDGNAMGWYRQAPGKERELVAAISWTGGSTYYADSVKGRFTISRDNAKNTVYLQMYSLKPVDTAVYYCAADSGWWLDQWSWYDYWGLGTQVTVSS”, the “polyreactivity (PSR sort gate)” value is reported as “low polyreactivity”.
For “QVQLVESGGGLVQAGGSLRLSCASSGRIFDSNTMGWYRQAPGKERELVAAINWSDGSTYYADSVKGRFTISRDNAKYTVFLQMNSLKPEDTAVYYCNAGARRYLYDYWVQGTQVTVSS”, the “polyreactivity (PSR sort gate)” value was “low polyreactivity”.
For “QVQLVESGGGLVQAGGSLRLSCASSGRIFGGYAMGWYRQAPGTELELVAAISSGGSTYYADSVKGRFTISRDNAKNTVYLQMNSLKPEDTAVYYCYAYYPWRWGSYPFDYWGQGTQVTVSS”, the “polyreactivity (PSR sort gate)” value was “high polyreactivity”.
For “QVQLVESGGGLVQAGGSLRLSCASSGRIFSWYTMGWNRQAPGKVSELVPVITSGGTTKYADSEKGRFTISRDNAKNTVYLQMNSLKPEDTAVYYCNVAGRDYAVRWGSFDYWGQGTQVTVSS”, the “polyreactivity (PSR sort gate)” value was “low polyreactivity”.
In the case of “QVQLVESGGGLVQAGGSLRLSCASSGRIFWRNAMGWYRQAPGKERELVAAITSGGRTNYADSVKGRFTISRDNAKNPVYLQMNSLKPEDTAVYYCNALWRGRYGYWGQGTQVTVSS”, the “polyreactivity (PSR sort gate)” value is reported as “high polyreactivity”.
In the case of “QVQLVESGGGLVQAGGSLRLSCASSGRIFWTYAMGWYRQAPGKERELVAAITSGGSTYYADSVKGRFTISRDKAKNTVYLQMNSLKPEDTAVLYCAATSYYYNFLEHDYWGQGTQVTVSS”, the “polyreactivity (PSR sort gate)” value is reported as “high polyreactivity”.
With “QVQLVESGGGLVQAGGSLRLSCASSGRIFYYNTMGWYRQAPGKERELVAAINWSGTSTYYADSVKGRFTISRDNAKNTVYLQMNSLKPEDTAVYYCAAYYRYRVTYDYYYWGQGTQVTVSS” the “polyreactivity (PSR sort gate)” value was “high polyreactivity”.
For “QVQLVESGGGLVQAGGSLRLSCASSGRNFGYDGMGWYRQAPGKERELVAAITYRGGSTYYADSVKGRFTISRDNAKNTVYLQMNSLKPEDTAVYYCAADGYSHYRYLYDYWGQGTQVTVSS”, the “polyreactivity (PSR sort gate)” value was “low polyreactivity”.
For “QVQLVESGGGLVQAGGSLRLSCASSGRNFRGYAMGWYRQAPGKEREFVAAITKNGGSTYYADSVKGRFTISRDNAKNTVYLQMNSLKPEDTAVYYCAVRAWDPYTGKSDYWGQGTQVTVSS”, the “polyreactivity (PSR sort gate)” value was “low polyreactivity”.
For “QVQLVESGGGLVQAGGSLRLSCASSGRTFGINAMGWYRQAPGKERELVAVISFGDGGTYYADSVKGRFTISRDNAKNTVYLQMNSLNPEDSAVYYCATDYQSTSVWGGHFVINPYDYWGQGTQVTVSS”, the “polyreactivity (PSR sort gate)” value was “low polyreactivity”.
In the case of “QVQLVESGGGLVQAGGSLRLSCASSGRTFNPYAMGWYRQAPGKERELVAAISRSGGGTYYADSVKGRCTISRDNAKNTVYLQMNSLKPEDTAVYYCNADRATCWEQWWYDNWGQGTQVTVSS”, the “polyreactivity (PSR sort gate)” value is reported as “low polyreactivity”.
With “QVQLVESGGGLVQAGGSLRLSCASSGRTFSYYALGWSRQAPGKERELVAAITSGGSTYYADSVKGRFTISRDNAKNTVYLQMNSLKPEDTAVYYCAADPGDDYWGQGTQVTVSS” the “polyreactivity (PSR sort gate)” value was “low polyreactivity”.
With “QVQLVESGGGLVQAGGSLRLSCASSGRTFSYYAMGWYRQAPGKERELVAAISTSGGSTYYADSVKGRFTISRDNAKNTVYLQMNSLKPEDTAVYYWAASPYLRFLYGGFGYWGQGTEVTVSS” the “polyreactivity (PSR sort gate)” value was “high polyreactivity”.
For “QVQLVESGGGLVQAGGSLRLSCASSGRTSLNYAMGWYRQAPGKDRELVAAITSGGGGTYYADSVKGRFTISRDNAKNTVYLQMYRLKPEVTALYYCGAKFPARRKLSKVGFDYWGQGTQVSVSS”, the “polyreactivity (PSR sort gate)” value was “high polyreactivity”.
For “QVQLVESGGGLVQAGGSLRLSCASSGSIFEANAMGWYRQAPGIESELVAAISTTGGNTYYADSVKGRFTISRDNAKNTVYLQMNSLKPEDTAVYYCAADPSQPRIDSSNYDYWGQGTQVTVSS”, the “polyreactivity (PSR sort gate)” value was “low polyreactivity”.
For “QVQLVESGGGLVQAGGSLRLSCASSGSIFEGYVMGWYRQAPGKERELVAAITTGGGSTYYADSVKGRFTISRDNAKNTVYLQMTSLKPEDTAVYYCAKDYWFGYEYWGQGTQVTVSS”, the “polyreactivity (PSR sort gate)” value was “low polyreactivity”.
With “QVQLVESGGGLVQAGGSLRLSCASSGSIFFGYGMGWYRQAPGKERELVATITTSGGTYYADSVKGRFRISRDNAKNTDYLQMNSLKPEDTAVYYCAATAAALDGNTIMYYWGQGTQVTVSS” the “polyreactivity (PSR sort gate)” value was “low polyreactivity”.
With “QVQLVESGGGLVQAGGSLRLSCASSGSIFSSNTMGWYRQAPGKERELVAAITVSGGRTYYADSVKGRFTISRDNAKNTVYLQMNSLKPEDTAVYFCAARYANTYRTETSYPRYYSWGQGTHVTVSS” the “polyreactivity (PSR sort gate)” value was “high polyreactivity”.
For “QVQLVESGGGLVQAGGSLRLSCASSGSIFWQNTMGWYRQAPGKERELVATITSAGSTYYADSVKGRFTISRDNAKNTVYLQMNSLKPEDTAVYYCAKGHQPGHVFHPEYGYDYWGQGTQVTVSS”, the “polyreactivity (PSR sort gate)” value was “low polyreactivity”.
In the case of “QVQLVESGGGLVQAGGSLRLSCASSGSIFYGYAMGWYRQAPGKERELVAAINNSGVSTYYADSVQGRFTISRDNAKNTVYLQMNSLKPEDTAVYYCNKAGAYPYHYDYWGQGTQGTVSS”, the “polyreactivity (PSR sort gate)” value is reported as “low polyreactivity”.
For “QVQLVESGGGLVQAGGSLRLSCASSGSIFYNNAMGWYRQAPGKERELVAAIRSTGTRTYYSDSVKGRFTISRDTAKNTVYLQMNSLKPEDTAVYYCAVGDYGLWSYDYWGQGTQVTVSA”, the “polyreactivity (PSR sort gate)” value was “low polyreactivity”.
In the case of “QVQLVESGGGLVQAGGSLRLSCASSGSILVHYAMGRYRQAPGKERELFAAISRGGSTNYADSVKGRFTISRDNAKNTVYLQMNSLKPEDTAVYFCAARHGQSWQWLEYDYWGHGTQVTVSS”, the “polyreactivity (PSR sort gate)” value is reported as “low polyreactivity”.
In the case of “QVQLVESGGGLVQAGGSLRLSCASSGSNTFINAMGWYRQAPGKERELVAAISGSGGSTYYADSVKGRFTISRDNAKNTVYLQMNFLKPEDTAVYYAARTGQYKTYGEYDYWGQGTQVTVSS”, the “polyreactivity (PSR sort gate)” value is reported as “low polyreactivity”.
With “QVQLVESGGGLVQAGGSLRLSCASSGSTFDINAMGWYTQAPGKARELVAAITCGGGTNYADSVKGRFTISRDNAKNTVYLEMNSLKPEDTAVYYCAAVYYSTDYYFWYDYWGQGTQVTVSS” the “polyreactivity (PSR sort gate)” value was “low polyreactivity”.
With “QVQLVESGGGLVQAGGSLRLSCASSGSTFDYYVMGWYRQEPGIVRELVASISSGGSTYYADSVKGRFTISRDNAKNTVYLQMNSLKPEDTAVYYCAARYYGRVGGYSIGYNYWGQGTQVTVSS” the “polyreactivity (PSR sort gate)” value was “high polyreactivity”.
For “QVQLVESGGGLVQAGGSLRLSCASSGSTFFTNAMVWYRQAPGKERELVATITWSGGTTYADSVKGRFTISRDNAKNTVYLQMNSLKPEDTAVYYCADESSSYWGDQGGALWLYDYWGQGTQVTVSS”, the “polyreactivity (PSR sort gate)” value was “low polyreactivity”.
In the case of “QVQLVESGGGLVQAGGSLRLSCASSGSTFNPYAMGWYRQAPGKERELVAAISRGGRTKYADSVKGRFSISRDNAKNTVYCHMNSLKPEDTAVYYCAARQRSRSRYDYWGQVTQVTVSS”, the “polyreactivity (PSR sort gate)” value is reported as “high polyreactivity”.
In the case of “QVQLVESGGGLVQAGGSLRLSCASSGSTFSYYTMGWNRQAPGKERELVAAITRSGGRTYYADSVKGRFTISRDNAKNTVYLQMNSLKPEDTAVYNCAAYRANSGEFDYWGQGTQVTVTS”, the “polyreactivity (PSR sort gate)” value is reported as “high polyreactivity”.

Reference: the nanobody polyreactivity screen of Harvey et al. (2022)
